We go through 6 sequences from a protein production outcome set (Wang et al. 2014).

This series is described as follows: label from the status in PepcDB records.

For “MEYGFWLPIFGGWLRNVNDESMPPTFEYAKQTAQAAEQLGFSTTLIAELNLNDIKGVSAPSLEAWTTAAALAAVTDRLEIMTAVRPGFHNPAVTAKMAANIDQLSNGRFTLNVVSAWWEEEAKQYGGVFTAHDERYDRTEEFVTILKGLWKEEEFSYKGNFYELHHTHLSPKPVQKQGIKLYAGGESKRGKEVIVNHADAYVMHGGTVEEVSVKIEDMKNRRKKVTEEPLQSFGLAAYVICRHTEEEALEEWRRITDVKDDALGYAGYQDFVSKSQLEQQVKLNDYSVSNRGLRPNLIGTPEQIAERILAFEKVGVTLLLLQFSPQLEEMKRFSEKVMPLVEAKRKELIT”, the protein production result is given as “not failed”.

As for “MEYKKFVEARRELNEKVLSRGTLNTKRFFNLDSAVYRPGKLDVKTKELMGLVASTVLRCDDCIRYHLVRCVQEGASDEEIFEALDIALVVGGSIVIPHLRRAVGFLEELREMEKNGETISL”, the protein production entry is “not failed”.

With “MEYNRNFFIAIGLSFGVLIAWHFFYVAPKQTELQQKQLIAQQLLKQQSAVSSPTANFSDSASTHESALIINHPMSPEIRDAELAKTNRVAIKTNELEGSINLVGAQFDDLLLKKYRLTVDKKSSEIALLNPKGFKETYLAEFGFTSSSLSKDALPQSDTRWHIEGNNTTLTPSTPVTLIYNNGQGQTFRRILSIDDHYMFTIEDSITNESDKPIYLSSYARVARAAPPEHTNATYLLHEGMIGIAGDSLKTEKYKTLAELNPNPDNGQKSMTFSKVIGGWVGITDKYWAVAVIPPQDKEYTSRFIYFDRLQTHYQSDLLGSLLTVAPNETKTITNRLFAGAKQVEIINHYQNDLKIKKFALLIDWGWFDFITKPMFSLIDILYKQTGNFGIAILLVTVLLKTLLFPLANKSYKSMARMKLIQPMLLEIKEKYPEDRTKQQQAIIELYKTQKINPLAGCWPMLVQFPIFFALYKVLYITIEMRHAPFFGWIQDLAAPDPTSLFNLFGLLPYTVPAFLMLGAWPLIMGITMFLQMRMNPAPQDQTQAMIFAWMPIVFTFMLASFPVGLVIYWAWNNILSMIQQGIMMKRQGVKIELFDNLKAMWRKSPKKEAHE”, the protein production entry was “failed”.

“MEYSFYDFLKLIGSLGLFLYGMKIMSEGLQKVAGDRLRGILTAMTTNRVTGVLTGVLITALIQSSSATTVMVVSFVNAGLLTLAESISVIMGANIGTTVTAWIISIFGFKVDMAAFALPLLAIALPLIFSGKSNRKSIGEFIFGFSFLFMGLSYLKANAPDLNANPEMLAFVQNYTDMGFFSVLLFLFIGTILTMIVQASAATMAITLIMCANGWISLELGAALVLGENIGTTITANLAALTANSQAKRAALAHFVFNVFGVIWVLIIFHPFMVFVNWVVDTFFHPGSAEVAISYKLSAFHSIFNICNVCLLIWGVKLIERTVCAIIRPKEEDEEPRLRFITGGMLSTAELSILQARKEIHLFSERIHRMFGMVQDLLHTEKDDDFNKLFSRIEKYENISDNMELEIANYLNQVSEGRLSSESKLQIRAMLREVTEIESIGDSCYNLARTISRKRQTNQDFTEKQYEHIHFMMKLTNDALSQMIVVVEKPEHQSIDVNKSFNIENEINNYRNQLKNQNILDVNNKEYDYQMGVYYMDIIAECEKLGDYVVNVVEASSDVKEKKAS”: the protein production result is recorded as “failed”.

As for “MEYYNLILYLLVFGADMLIILQTYNEIKMWKTVKGNFVGKVSIIVPIKGIDTRLERNIESLLSQDYPYPYEVIYVVEKGDEVENILKKYNVKIVYSDFNCDSCSGKIRAQISGLLRASNDIIVFADSDTWYPRYWLRNLISPLDKYDTTTTFSWPFPSRITLSNLIRAGFWTLGFESQSLQSSRFLWGGSMALRREFFDNEVLDELSKEWCDDCTLTRIIKRRGGKIGFVMSAIPLNVYDENSLISWSSRQIITILAYSPRGARAYLVAGTFFALILIYSLVYLNIVTFTPYILWIVKNVIRGVKYPKQALIASLMTILAIPYALFLLVFNWNRREVYWRGKRYIVKPLREK”, the protein production result is reported as “failed”.

Take “MFAAAVSFVALLLFTIGLYGVMTSRVGIKMLISIEIMINSAILSIIGIGSYFYSSSVQIDPYVFALFAIAIGVVESAVGLGLLVIVYRKFGKIDISLLKEIRW”: the protein production result was “failed”.
